{"source": "patent US20040009905A1", "about": "(B M R A CORPORATION B V, published 2004)", "binders": {"B1": {"name": "Neuropeptide Y (NPY) (peptide)", "peptide": "not shown", "modifications": "C-terminal tyrosine amidated", "notes": "also called native NPY; Human NPY 1-36"}}, "target": "T1, NPY Y1 receptor (human, UniProt P25929 1-384)", "T1 construct": "whole, on cells; SK-N-MC cells are said to express the NPY Y1 receptor exclusively; also called SK-N-MC cells", "T1 sequence (looked up)": "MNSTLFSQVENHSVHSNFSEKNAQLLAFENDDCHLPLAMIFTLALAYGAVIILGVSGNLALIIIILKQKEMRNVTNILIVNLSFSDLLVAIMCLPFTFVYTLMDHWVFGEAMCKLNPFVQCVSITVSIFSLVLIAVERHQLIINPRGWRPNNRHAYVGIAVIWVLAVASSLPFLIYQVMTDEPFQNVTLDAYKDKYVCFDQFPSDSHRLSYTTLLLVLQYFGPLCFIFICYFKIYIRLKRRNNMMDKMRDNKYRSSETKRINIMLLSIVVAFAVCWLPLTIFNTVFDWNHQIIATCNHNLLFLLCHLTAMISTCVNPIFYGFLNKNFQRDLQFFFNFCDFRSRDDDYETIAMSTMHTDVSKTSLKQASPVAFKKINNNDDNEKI", "experiment": "125I-NPY displacement on SK-N-MC cells", "experimental": "Various peptide dilutions were incubated with SK-N-MC cells that exclusively express Y1 receptors. Cells were then washed three times with buffer and lysed in 1% Nonidet P40 (Fluka, Neu-Ulm, Germany), 8M urea, 3M acetic acid. […] At the end of the incubation period, cells were washed and lysed. Bound radioactivity was determined by gamma counting. […] Each point represents the mean ± of at least 4 experiments.", "data": [{"binder": "B1", "values": [{"measurement": "binding result", "result": "binds"}]}]}
